Experimental data reported in patent US9266952B2, “Antibodies against ROR1 and uses thereof” (KANCERA AB, priority 2010, dated 2016).

Test system: primary patient CLL cells
Test: Primary patient CLL cells i.v. in irradiated NOD.SCID mice, spleen
Assay type: in vivo
Details: 10 mg/kg i.p. from day 5-7 after transfer, sacrificed 3-7 days later, versus isotype control
Protocol: Primary patient CLL cells are intravenously injected into immuno-deficient NOD. SCID mice. The CLL cells home to the spleen and there form proliferating clusters, very similar to human disease. After allowing to settle in the spleen for 5-7 days, the mice were treated with 10 mg/kg anti-ROR1 antibodies every third day and terminated after (A) 7 days, n=7 mice/group; (B) 7 days, n=9-10 mice/group; (C) 4 days, n=8 mice/group; (D) 3 days, n=5 mice/group. At termination the number of CLL cells is quantified in spleen using FACS staining of human CD45, CD19 and CD20. Each figure represents cells from individual CLL patients.
NOD.SCID mice received whole-body irradiation of 1 Gy 1 day prior to injection of primary patient cells.
PBMCs were isolated from peripheral blood of four CLL patients using the Ficoll Hypaque technique. Thereafter, 100×10^6 cells was injected i.v into irradiated NOD.SCID mice. The mice were treated i.p with 10 mg/kg of the ROR1 specific mAb 009-G03, or irrelevant negative control mAb at day 5-7 after transfer of cells to mice and sacrificed 3-7 days later. […]
Spleens were dissected out, minced, and lysed for red blood cells. The cell suspension were stained with fluorochrome conjugated mAb's recognizing human CD45, CD19 or CD20 and CLL cells were quantified as being either CD45^+CD19^+ or CD45^+CD20^+. […]

B1: 010-D06: ROR1 specific mAb, VH SEQ ID NO: 27, VL SEQ ID NO: 28 (FIG. 15) (antibody, listed as Mus musculus, V domains shown)
VH: EVQLLESGGGLVQPGGSLRLSCAASGFTFRDYGMHWVRQAPGKGLEWVSAISGSGGSTFYADSVKGRFTISRDNSKNTLYLQMNSLRAEDTAVYYCARGRSAGSMGYFDYWGQGTLVTVSS
VL: QSVLTQPPSASGTPGQRVTISCTGSSSNIGAGYDVHWYQQLPGTAPKLLIYGNSNRPSGVPDRFSGSKSGTSASLAISGLRSEDEADYYCAAWDDSLNGWVFGGGTKLTVLG
B1 was tested, and the “number of grafted CLL cells in the spleen” value was “significantly reduces the number of grafted CLL cells in the spleen”.
